Results on 1 molecule are retold here after PMC2686265, “ATP and MO25α Regulate the Conformational State of the STRADα Pseudokinase and Activation of the LKB1 Tumour Suppressor” (PLoS Biology, 2009).

Residue numbers refer to the chain shown, from its start. Where two headings read alike, the source gives them in different places.

Common to all, as to test: SPR BIAcore binding of STRADα to immobilised MO25α
A general note: SPR reads the build-up and loss of mass on a sensor chip optically.

The target of one experiment is T1, MO25α (R227A) (Homo sapiens, UniProt Q7RTN6+Q9Y376, R227A).
T1 construct: wild-type and mutant forms of STRADα (residues 54–431) and MO25α (residues 1–341) were expressed individually as GST fusion proteins in E. coli; GST (cleaved yes); made in house; host or cells: E. coli
T1 sequence (Q9Y376 1-341 R227A): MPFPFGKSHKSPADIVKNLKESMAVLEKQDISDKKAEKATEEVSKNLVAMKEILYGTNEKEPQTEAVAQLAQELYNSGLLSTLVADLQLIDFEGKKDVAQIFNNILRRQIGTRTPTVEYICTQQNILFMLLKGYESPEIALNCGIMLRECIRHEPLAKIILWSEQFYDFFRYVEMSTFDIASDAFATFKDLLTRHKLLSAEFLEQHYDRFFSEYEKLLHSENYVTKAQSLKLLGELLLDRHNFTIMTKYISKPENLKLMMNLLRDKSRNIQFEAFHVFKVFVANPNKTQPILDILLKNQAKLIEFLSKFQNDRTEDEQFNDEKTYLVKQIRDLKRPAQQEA
T1 sequence (Q7RTN6 59-431): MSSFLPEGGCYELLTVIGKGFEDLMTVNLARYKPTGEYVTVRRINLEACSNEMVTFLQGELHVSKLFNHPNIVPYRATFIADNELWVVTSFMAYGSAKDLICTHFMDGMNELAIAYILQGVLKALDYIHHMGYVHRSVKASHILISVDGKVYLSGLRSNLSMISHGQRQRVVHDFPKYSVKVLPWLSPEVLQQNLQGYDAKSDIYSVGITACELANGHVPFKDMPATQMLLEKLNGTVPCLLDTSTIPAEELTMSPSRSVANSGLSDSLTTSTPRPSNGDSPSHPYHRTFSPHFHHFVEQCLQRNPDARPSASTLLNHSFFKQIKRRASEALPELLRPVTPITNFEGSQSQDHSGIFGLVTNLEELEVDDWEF
Here is the method: (§1) SPR measurements were performed using a BIAcore T100 instrument. Wild-type and mutant forms of MO25α were immobilized on a CM5 sensor chip using standard amine-coupling chemistry, and 10 mM HBS (pH 7.4) was used as the running buffer. The carboxymethyl dextran surface was activated with a 7-min injection of a 1∶1 ratio of 0.4 M 1-ethyl-3-(3-dimethylaminopropyl) carbodiimide hydrochloride (EDC)/0.1 M N-hydroxy succinimide (NHS). MO25α (5–7 µM) was coupled to the surface with a 1-min injection of protein diluted in 10 mM sodium acetate (pH 5.5). Remaining activated groups were blocked with a 7-min injection of 1 M ethanolamine (pH 8.5). MO25α was immobilised on three flow cells of a CM5 chip at densities 1,700–2,500 RU performed at 25°C, leaving one flow cell as a reference to subtract any possible nonspecific binding.
(§2) STRADα was prepared in running buffer containing 50 mM Tris (pH 7.8), 50 mM NaCl, 270 mM sucrose, 1 mM DTT, 0.005% P20, and 0.1 mg/ml BSA in the presence/absence of 100 µM ATP and 1 mM MgCl2, and injected over all four surfaces at nine concentrations of a 3-fold concentration series (5 µM to […]). Each concentration was injected in duplicate over all surfaces. Association was measured for 60 s at a flow rate of 50 µl/min, and dissociation was measured for 3 min. STRADα dissociated completely from the MO25α surfaces, thus eliminating the need for a regeneration step.
(§3) Data were analysed using Scrubber 2 (BioLogic Software) and CLAMP software. Data were double referenced to the reference surface to subtract any possible nonspecific binding and to the blank buffer injections to subtract drift of the target from surface. Data were fitted to a 1∶1 or 2∶1 binding site model where appropriate. Kinetic association (k a) and dissociation rate (k d) constants were separately determined from the BIAcore sensorgrams, and equilibrium dissociation constants (K d) were calculated as: K d1 = k d1/k a1 and K d2 = k d2/k a2. Equilibrium constants were also independently calculated from a saturation binding curve, by fitting the measured response (R) from specific binding to the following equation: R = (R max1[STRAD]/([STRAD]+K d1))+(R max2[STRAD]/([STRAD]+K d2)), where R max1 and R max2 are the relative maximal changes in response for sites 1 and 2, respectively, and K d1 and K d2 are the equilibrium dissociation constants for sites 1 and 2, respectively. Dose-response curves for calculating the Hill slope (H) of the data were fitted with the following equation: R = minimum+(maximum−minimum)/(1+10^((logEC50−[STRAD])×H)) using GraphPad-PRISM software.

A further experiment has as its target T2, MO25α (R227A/M260A) (Homo sapiens, UniProt Q9Y376, M260A/R227A).
T2 construct: wild-type and mutant forms of STRADα (residues 54–431) and MO25α (residues 1–341) were expressed individually as GST fusion proteins in E. coli; GST (cleaved yes); made in house; host or cells: E. coli
Conditions: even in the presence of ATP. Here is the method:
as §1, §2, §3

The next experiment deals with T3, MO25α (M260A) (Homo sapiens, UniProt Q7RTN6+Q9Y376, M260A).
T3 construct: wild-type and mutant forms of STRADα (residues 54–431) and MO25α (residues 1–341) were expressed individually as GST fusion proteins in E. coli; GST (cleaved yes); made in house; host or cells: E. coli
T3 sequence (Q9Y376 1-341 M260A): T1 sequence (Q9Y376 1-341 R227A) with A227R, M260A
T3 sequence (Q7RTN6 59-431): T1 sequence (Q7RTN6 59-431)
Here is the method:
as §1, §2, §3

In a further experiment the target is T4, MO25α (WT) (Homo sapiens, UniProt Q7RTN6+Q9Y376).
T4 construct: wild-type and mutant forms of STRADα (residues 54–431) and MO25α (residues 1–341) were expressed individually as GST fusion proteins in E. coli; GST (cleaved yes); made in house; host or cells: E. coli (STRADα: BL21(DE3)pLysS, co-expressed with MO25α and then separated from it)
T4 sequence (Q9Y376 1-341): T1 sequence (Q9Y376 1-341 R227A) with A227R
T4 sequence (Q7RTN6 59-431): T1 sequence (Q7RTN6 59-431)
Here is the method:
as §1, §2, §3

T2 sequence (Q9Y376 whole entry R227A/M260A, one chain of several, the tested form may be a part): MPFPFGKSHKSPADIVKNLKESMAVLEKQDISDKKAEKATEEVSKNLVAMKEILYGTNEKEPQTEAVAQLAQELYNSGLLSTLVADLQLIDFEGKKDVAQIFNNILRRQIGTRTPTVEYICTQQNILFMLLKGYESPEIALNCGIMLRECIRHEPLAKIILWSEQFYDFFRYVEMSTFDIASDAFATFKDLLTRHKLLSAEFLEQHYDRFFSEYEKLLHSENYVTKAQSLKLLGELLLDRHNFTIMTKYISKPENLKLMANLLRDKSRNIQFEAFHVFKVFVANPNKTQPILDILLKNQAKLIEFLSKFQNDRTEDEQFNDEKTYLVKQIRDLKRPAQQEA

B1: STRADα: STRADα pseudokinase (residues 59–431), His tag removed, analyte injected over immobilised MO25α in SPR (protein)
chain: T1 sequence (Q7RTN6 59-431)
modifications: left off: His6 with TEV site (…), N-terminal, cleaved
notes: STRADα pseudokinase (residues 59–431), His tag removed, analyte injected over immobilised MO25α in SPR
With B1, the kd1 with MO25α (R227A) (+ ATP + Mg2+) is reported as 0.72 (2.0 × 10−3) s−1; with MO25α (M260A) (+ ATP + Mg2+) it was 0.43 (1.7 × 10−3) s−1; in the experiment with MO25α (M260A) (no ATP) it was 0.92 (3.0 × 10−3) s−1; with MO25α (WT) (+ ATP + Mg2+), 0.43 (1.4 × 10−3) s−1; with MO25α (WT) (no ATP) it was 0.63 (3.0 × 10−3) s−1. In the experiment with MO25α (R227A) (in the absence of ATP), the “binding of STRADα observed by SPR” value is “virtually abolished binding”. For the same molecule, in the experiment with MO25α (R227A/M260A), the “interaction with STRADα” value is reported as “failed to interact”. Besides, the kd2 in the experiment with MO25α (M260A) (+ ATP + Mg2+) is 0.05 (2.3 × 10−4) s−1; with MO25α (WT) (+ ATP + Mg2+) it was 0.04 (8.8 × 10−5) s−1. The Kd in the experiment with MO25α (WT) (+ 0.1 mM ATP, Kd = kd/ka, read-out: Kd1) was found to be 2500 nM; in the experiment with MO25α (WT) (in the presence of ATP, read-out: second binding constant (Kd2)) it was 12 nM; in the experiment with MO25α (WT) (no ATP, Kd = kd/ka, read-out: Kd1), 3800 nM. For the same molecule, the Hill slope (as a rule, a measure of the steepness of the concentration-response curve) in the experiment with MO25α (WT) (in the presence of ATP, two-site binding) was found to be 0.4.
